Laboratory results from patent publication US20020034770A1, “COMPOUNDS THAT INTERFERE WITH DNA REPLICATION IN RAPIDLY PRO[…] FOR USE IN CANCER THERAPY AND METHODS FOR SCREENING FOR SUCH COMPOUNDS” (priority 1996, published 2002).

Target: T1, Cdc6-associated kinase (Clb/Cdk1 kinases) (Saccharomyces cerevisiae, UniProt P00546)
T1 construct: 1 mg of protein extract from K4527, grown in YEPR at 25° C. or induced for 4 hours in YEPRG, was immunoprecipitated with 12CA5 Ab; endogenous in cells; host or cells: S. cerevisiae strain K4527 (W303 background, wild type, 5 copies of GAL-HA3CDC6); The kinase is endogenous; Only the Cdc6 bait is expressed from an introduced construct
Test: Histone H1 kinase assay of Cdc6-associated kinase immunoprecipitated with 12CA5 Ab
Format: biochemical
Conditions: HA3Cdc6 immunoprecipitate from K4527 extract (GAL-HA3CDC6, induced 4 hours in YEPRG); FIG. 5D
Procedure: Protein extracts were prepared as in Schwob et al., 1994. For Clb2 kinase assays, […] of total proteins were immunoprecipitated using anti-Clb2 Ab (1:30, Amon et al., 1992). To assay Cdc6-associated kinase, HA3Cdc6 or Cdc6HA3 was immunoprecipitated with 12CA5 Ab (1:10) from the amounts of protein extracts indicated in figure legends. Histone Hi kinase activity was measured as previously described (Schwob et al., 1994).
D) Cdc6-associated kinase is inhibited by p40^SIC1. 1 mg of protein extract from K4527, grown in YEPR at 25° C. or induced for 4 hours in YEPRG, was immunoprecipitated with 12CA5 Ab and before the last washing step split into four aliquots. Kinase activity was measured in the absence or in the presence of the indicated amounts of purified p40^SIC1. R:Raffinose. G: Galactose. The addition of p40^SIC1 causes the appearance of two additional signals probably due to phosphorylation of p40^SIC1 by an aspecific kinase. E) Cdc28p co-immunoprecipitates with Cdc6p. Cdc6p was immunoprecipitated with 12CA5 Ab from protein extracts (5 mg) of K4527 cells grown at 25° C. in YEPR and induced for 4 hours in YEPRG. Protein A-Sepharose beads were boiled in SDS buffer and analysed by Western blot using Cdc28 Ab (1:500) ([…]. R: Raffinose. G: Galactose).

T1 sequence (P00546 whole entry): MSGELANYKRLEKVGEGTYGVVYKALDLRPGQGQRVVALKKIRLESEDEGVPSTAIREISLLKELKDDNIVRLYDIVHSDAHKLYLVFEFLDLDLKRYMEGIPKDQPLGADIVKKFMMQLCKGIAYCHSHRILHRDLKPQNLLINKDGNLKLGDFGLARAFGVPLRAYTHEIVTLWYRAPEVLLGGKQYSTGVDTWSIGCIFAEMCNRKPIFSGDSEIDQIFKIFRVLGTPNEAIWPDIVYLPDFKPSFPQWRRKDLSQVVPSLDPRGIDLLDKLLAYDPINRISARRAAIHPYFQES

B1: p40^SIC1: purified Clb-specific Cdk inhibitor protein of budding yeast, encoded by SIC1 (protein, UniProt P38634 1-284, looked up)
Protein SIC1: MTPSTPPRSRGTRYLAQPSGNTSSSALMQGQKTPQKPSQNLVPVTPSTTKSFKNAPLLAPPNSNMGMTSPFNGLTSPQRSPFPKSSVKRTLFQFESHDNGTVREEQEPLGRVNRILFPTQQNVDIDAAEEEEEGEVLLPPSRPTSARQLHLSLERDEFDQTHRKKIIKDVPGTPSDKVITFELAKNWNNNSPKNDARSQESEDEEDIIINPVRVGKNPFASDELVTQEIRNERKRAMLRENPDIEDVITYVNKKGEVVEKRRLTDEEKRRFKPKALFQSRDQEH
  Cdc6-associated histone H1 kinase activity on addition of purified p40^SIC1: inhibited
